From patent US20240034757A1

Target: CXCL9_HUMAN (human) (UniProt Q07325)
Experiment: yeast surface display FACS re-test

Sequence of CXCL9_HUMAN (human) (Q07325 23-125 limits assumed): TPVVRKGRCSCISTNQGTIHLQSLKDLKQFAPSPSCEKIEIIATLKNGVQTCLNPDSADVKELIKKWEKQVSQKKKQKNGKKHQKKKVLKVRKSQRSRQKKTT

B1: P1126_AMBCA (protein)
chain: KPQILQRTDKSTDSEWDPQTCPETCIPSKNITCSDGCVCVKLGEEEEGTCFNMTGVDWLGSPSDD
Binder B1 has a % cells over threshold fluorescence of 56%.
